{
  "source": "patent US10907134B2",
  "about": "“Mutated genes for the catalytic protein of oplophorus luciferase and use thereof” (JNC CORPORATION, priority 2013, dated 2021)",
  "key": {"[1]": {"assay": "Luminescence activity of KAZ mutants (pCold II, E. coli) in supernatant and precipitate of crude enzyme solution", "assay_type": "biochemical", "settings": "Table 3, pCold II, E. coli BL21, 0.5 μg coelenterazine, 60 seconds", "method": "In order to express the KAZ mutants in E. coli, the recombinant plasmid prepared in EXAMPLE 3 was used. The E. coli BL21 strain (Novagen, Madison, Wis.) was used as a host cell. The BL21 strain carrying the recombinant plasmid was incubated in 5 mL of Luria-Bertani medium (hereinafter designated as LB medium) containing ampicillin (50 μg/mL) at 37° C. for 18 hours. This seed culture, 0.1 mL, was inoculated to 10 mL of LB medium and incubated for 3 hours, followed by cooling in an ice-water bath for 1 hour. IPTG was added to the culture medium at a final concentration of 1 mM, followed by incubation at 15° C. for further 20 hours. After completion of the incubation, 1 mL of the cultured medium was harvested by centrifugation at 10,000 rpm for 2 minutes. The thus collected E. coli cells were suspended in 0.5 mL of 30 mM Tris-HCl (pH 7.6)-10 mM EDTA (manufactured by Wako Pure Chemical Industries, Ltd.) (hereinafter designated as TE). The E. coli cells were disrupted by sonication for 3 seconds using a Branson Model 250 Sonifier (Danbury, Conn.) to give a crude enzyme solution. After 0.5 mL of the crude enzyme solution was further centrifuged at 10,000 rpm for 2 minutes to separate the supernatant from the precipitate, the precipitate was suspended in 0.5 mL of TE. Then 20 μL each of the supernatant and precipitate were analyzed by SDS-PAGE to confirm the presence or absence of soluble and insoluble proteins. The results are shown in FIG. 1, wherein M and 1 to 17 denote: M: molecular weight size markers; 1: KAZ; 2 KAZ-A4E; 3: KAZ-Q11R; 4: KAZ-Q18L; 5: KAZ-L27V; 6: KAZ-A33N; 7: KAZ-K43R; 8: KAZ-V44I; 9: KAZ-A54I; 10: KAZ-F68D; 11: KAZ-L72Q; 12: KAZ-M75K; 13: KAZ-I90V; 14: KAZ-P115E; 15: KAZ-Q124K; 16: KAZ-Y138I; 17: KAZ-N166R and 18: dnKAZ.\nA luminescence reaction was started by the addition of 5 μL each of the supernatant and precipitate obtained in EXAMPLE 4 to 100 μL of TE containing 0.5 μg of coelenterazine (manufactured by JNC Corp.). The luminescence activity was measured for 60 seconds using a luminometer (manufactured by Atto Corp.: AB2200) and expressed in terms of relative luminescence activity (Imax).\nTo express the KAZ mutants with two amino acid substitutions and three amino acid substitutions in E. coli using a pCold II vector, the recombinant plasmid constructed in EXAMPLE 13 and pCold-V44I-KAZ, pCold-A54I-KAZ, pCold-Y138I-KAZ prepared in EXAMPLE 3 were used. The supernatant and precipitate of each crude enzyme solution were prepared in the same manner as EXAMPLE 4, using the E. coli BL21 starin (Novagen, Madison, Wis.) as a host cell. The supernatant and precipitate, 20 μL each, were subjected to SDS-PAGE analysis to confirm the presence or absence of soluble proteins and insoluble proteins. In FIG. 3, M and 1 to 9 are as follows. M: molecular weight markers; 1: dnKAZ; 2: KAZ; 3: KAZ-V44I-A54I; 4: KAZ-V44I-Y138I; 5: KAZ-A54I-Y138I; 6: KAZ-V44I-A54I-Y138I; 7: KAZ-V44I; 8: KAZ-A54I; and 9: KAZ-Y138I.\nThe luminescence activities of 5 μL each of the supernatant and precipitate obtained in EXAMPLE 14 were determined in the same manner as EXAMPLE 5. The luminescence activity was assayed with a luminometer (manufactured by Atto Inc.: AB2200) for 60 seconds, and the maximum intensity of luminescence (Imax) was shown as relative luminescence activity."}, "[2]": {"assay": "Luminescence activity of ZZ-fused KAZ mutants in crude enzyme solutions", "assay_type": "biochemical", "settings": "Table 4; ZZ-fused (pCold-ZZ-P-); 1 μL crude enzyme solution, 1 mM DTT; 1 μg coelenterazine", "method": "To express the ZZ-fused KAZ mutants in E. coli, the recombinant plasmid prepared in EXAMPLE 6 was used. Crude enzyme solutions were prepared in the same manner as EXAMPLE 4 using the E. coli BL21 strain (Novagen, Madison, Wis.) as a host cell. The resultant crude enzyme solution, 5 μL, was subjected to SDS-PAGE analysis to confirm expression of the proteins (FIG. 2). In FIG. 2, M and 1 to 18 are the same as described in FIG. 1.\nDTT was added to the crude enzyme solution obtained in EXAMPLE 7 at a final concentration of 1 mM and the mixture was allowed to stand in an ice water for more than 5 hours. A luminescence reaction was started by adding 1 μL of the crude enzyme solution to 100 μL of TE containing 1 μg of coelenterazine (manufactured by JNC Corp.). The luminescence activity was determined using a luminometer (manufactured by Atto Inc.: AB2200) for 60 seconds, and the maximum intensity of luminescence (Imax) was shown as relative luminescence activity.\nTo express the ZZ-fused KAZ mutants in E. coli, the recombinant plasmid constructed in EXAMPLE 16 and pCold-ZZ-P-V44I-KAZ, pCold-ZZ-P-A54I-KAZ, pCold-ZZ-P-Y138I-KAZ prepared in EXAMPLE 6 were used. Crude enzyme solutions were prepared in the same manner as EXAMPLE 7, using the E. coli BL21 strain (Novagen, Madison, Wis.) as a host cell. DTT was added to the crude enzyme solutions at a final concentration of 1 mM. The mixtures were allowed to stand over 5 hours on ice, and luminescence activities were then assayed. The luminescence activities were determined by the method described in EXAMPLE 8. Also, 5 μL of the resultant crude enzyme solutions were subjected to SDS-PAGE analysis to confirm protein expression (FIG. 4). In FIG. 4, M and 1 to 9 are as follows. M: molecular weight size markers; 1: ZZ-P-KAZ; 2: ZZ-P-KAZ-V44I; 3: ZZ-P-KAZ-A54I; 4: ZZ-P-KAZ-Y138I; 5: ZZ-P-KAZ-V44I-A54I; 6: ZZ-P-KAZ-V44I-Y138I; 7: ZZ-P-KAZ-A54I-Y138I; 8: ZZ-P-KAZ-V44I-A54I-Y138I; and 9: ZZ-P-dnKAZ."}, "CHO-K1 cells": {"system": "CHO-K1 cells", "assay": "Luminescence activity of KAZ mutants expressed in animal culture cells with signal peptide of Gaussia luciferase for secretion", "assay_type": "cell-based, Chinese hamster", "settings": "Table 5, pcDNA3-GLsp- vectors, CHO-K1, 48 hours, 0.5 μg coelenterazine", "method": "Chinese hamster ovary cell line CHO-K1 was cultured in Ham's F-12 medium (manufactured by Wako Pure Chemical Industries, Ltd.) supplemented with 10% (v/v) fetal bovine serum (manufactured by Biowest Inc.). The CHO-K1 cells were plated in a 6-well plate in 1×10^5 cells/well/2 mL medium (n=2) and cultured in an incubator at 37° C. in 5% (v/v) CO2. After 24 hours, the purified recombinant plasmid was transfected to CHO-K1 cells using a FuGene HD transfection kit (manufactured by Promega Corp.), which was provided for subsequent experiment. Specifically, 1 μg of the recombinant plasmid pGL4.13 [Luc2/sv40], 0.1 μg of the internal standard vector and 3 μL of FuGene HD were added to 100 μL of the medium, which was allowed to stand at room temperature for 15 minutes. Subsequently, 100 μL of the DNA-FuGene complex was added to the cells in the 6 wells. After incubation for 48 hours, the culture medium was collected. On the other hand, the KAZ mutants expressed in the cells were washed 3 times with 3 mL of 1×PBS, then suspended in 1 mL of 1×PBS and disrupted on ice by ultrasonication, which was used as enzyme solutions of the cell-extracts of KAZ mutants.\nA luminescence reaction was started by adding 5 μL of the culture media and cell extracts obtained in EXAMPLE 10 to 100 μL of 30 mM Tris-HCl (pH 7.6)-10 mM EDTA (manufactured by Wako Pure Chemical Industries, Ltd.) containing 0.5 μg of coelenterazine (manufactured by INC Corp.). The luminescence activity was determined using a luminometer (manufactured by Atto Inc.: AB2200) for 60 seconds, and the maximum intensity of luminescence (Imax) was defined as a percentage.\nCulture media of the KAZ mutants with two amino acid substitutions and KAZ mutants with three amino acid substitutions and the enzyme solutions of the cell-extracts of KAZ mutants were prepared in the same manner as EXAMPLE 10.\nIn the resultant enzyme solutions and the enzyme solutions of the cell-extracts of KAZ mutants, luminescence activities were determined in the same manner as EXAMPLE 11."}},
  "data": [
    {"molecule": "KAZ-A4E: KAZ with single amino acid substitution A4E (protein) FTLEDFVGDWQQTAGYNQDQVLEQGGLSSLFQALGVSVTPIQKVVLSGENGLKADIHVIIPYEGLSGFQMGLIEMIFKVVYPVDDHHFKIILHYGTLVIDGVTPNMIDYFGRPYPGIAVFDGKQITVTGTLWNGNKIYDERLINPDGSLLFRVTINGVTGWRLCENILA", "values": [
      {"measurement": "Relative Luminescence Activity (Imax) Precipitate", "setting": "[1]; 5 μL precipitate", "result": 0.2},
      {"measurement": "Relative Luminescence Activity (Imax) Supernatant", "setting": "[1]; 5 μL supernatant", "result": 1.5},
      {"measurement": "Relative Luminescence Activity (Imax)", "setting": "[2]", "result": 0.5},
      {"measurement": "Relative Luminescence Activity (Imax) (%) Cell Extracts", "setting": "CHO-K1 cells; 5 μL cell extracts", "result": 0.1, "unit": "%"},
      {"measurement": "Relative Luminescence Activity (Imax) (%) Culture Medium", "setting": "CHO-K1 cells; 5 μL culture medium", "result": "less than 0.01%"}
    ]}
  ]
}
